We go through three molecules from patent US20250368742A1 (D2M BIOTHERAPEUTICS, published 2025).

Where a chain is given by its changes, count along the chain named.

The chains are these.
T1: human MICA002 on cells (human)
T1 chain: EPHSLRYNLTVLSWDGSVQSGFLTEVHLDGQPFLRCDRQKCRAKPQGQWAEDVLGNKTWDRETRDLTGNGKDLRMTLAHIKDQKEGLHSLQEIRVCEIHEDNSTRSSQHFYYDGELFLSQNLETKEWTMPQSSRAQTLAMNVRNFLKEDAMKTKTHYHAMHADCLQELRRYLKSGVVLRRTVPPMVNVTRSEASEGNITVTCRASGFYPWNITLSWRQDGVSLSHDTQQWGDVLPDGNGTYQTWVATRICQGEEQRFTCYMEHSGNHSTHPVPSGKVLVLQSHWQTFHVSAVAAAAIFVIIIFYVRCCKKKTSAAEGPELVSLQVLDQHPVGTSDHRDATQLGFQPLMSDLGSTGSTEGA

T2: MICA008-ECD-HISAvi (human)
T2 construct: Two sources under one name in the two kinetic assays; also called MICA008 polypeptide
T2 chain: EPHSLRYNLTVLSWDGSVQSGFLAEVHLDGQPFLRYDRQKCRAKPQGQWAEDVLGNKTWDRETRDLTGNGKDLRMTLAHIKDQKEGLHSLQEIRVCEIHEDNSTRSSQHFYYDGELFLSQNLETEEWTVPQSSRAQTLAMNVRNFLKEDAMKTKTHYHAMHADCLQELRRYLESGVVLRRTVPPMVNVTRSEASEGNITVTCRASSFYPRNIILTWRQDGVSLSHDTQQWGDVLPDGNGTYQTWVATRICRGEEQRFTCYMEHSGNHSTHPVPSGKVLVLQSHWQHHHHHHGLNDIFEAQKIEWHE

T3: MICA004-ECD-HISAvi (human)
T3 construct: also called MICA004 polypeptide
T3 chain: T2 chain with L122V, G175S, T181R, I213T, R251Q

T4: MICB005-ECD-HISAvi (human, UniProt Q29980 24-309)
T4 construct: Two sources under one name in the two kinetic assays; also called MICB005 polypeptide
T4 sequence: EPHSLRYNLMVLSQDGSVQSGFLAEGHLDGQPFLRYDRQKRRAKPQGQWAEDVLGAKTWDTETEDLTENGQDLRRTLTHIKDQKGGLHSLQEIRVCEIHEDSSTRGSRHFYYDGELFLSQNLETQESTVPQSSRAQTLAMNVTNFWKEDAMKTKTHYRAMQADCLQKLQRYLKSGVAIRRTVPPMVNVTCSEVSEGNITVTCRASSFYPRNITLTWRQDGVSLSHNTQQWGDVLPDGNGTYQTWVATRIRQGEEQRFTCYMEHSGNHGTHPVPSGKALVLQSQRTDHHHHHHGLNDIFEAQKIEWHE

T5: NKG2D-His (UniProt P26718 78-216, limits assumed)
T5 sequence (looked up): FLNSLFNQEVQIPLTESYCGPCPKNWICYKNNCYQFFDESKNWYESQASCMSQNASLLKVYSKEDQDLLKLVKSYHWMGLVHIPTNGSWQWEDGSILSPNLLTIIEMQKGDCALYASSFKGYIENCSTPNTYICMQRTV

B1: h36B3GA (antibody, V domains shown)
VH: QVQLVQSGAEVKKPGASVKVSCKASGYAFTKYNFYWVRQAPGQGLEWIGYIDPYFGGTVYNQKFKGKATLTVDKSTSTAYMELRSLRSDDTAVYYCATTDAYSLFTYWGQGTLVTVSS
VL: DIQMTQSPSSLSASVGDRVTITCRASQDISNYLNWYQQTPGKAVKLLIYYTSRLHSGVPSRFSGSGSGTDYTLTISSLQPEDIATYFCLQGNTLPFTFGQGTKLEIK
notes: humanized #36 variant; the text writes h36B3(GA); copies: 2 + 2
B2: D2M001-001 (antibody, V domains shown)
VH: QVQLVQSGAEVKKPGSSVKVSCKASGYTFSHHSISWVRQAPGQGLEWIGGIYPGKIKTNYAQKFQGRATLTADKSTSTAYMELSSLRSEDTAVYYCATLYGNYEAYWGQGTLVTVSS
VL: DIQMTQSPSSLSASVGDRVTITCRASENIYGALNWYQQKPGKSPKLLIYGTTSLQSGVPSRFSGSGSGRDYTLTISSLQPEDFATYYCQNVLTTPPWTFGGGTKVEIK
notes: only the CDRs are tied to the name in the text; copies: 2 + 2
B3: MICA002-ECD-HISAvi (ligand)
chain: T2 chain with W14G, Y36C, V129M, E173K, S206G, R210W, I213T, T215S, R251Q
notes: also called MICA002 polypeptide

The target of assay [1] is T1, human MICA002 on cells. As to the kind of experiment: flow cytometry, CHO-MICA002 cells.
The target in the next assay is T2, MICA008-ECD-HISAvi. As to the kind of experiment: SPR (Carterra); antibody captured by anti-human Fc, monomeric ECD antigen injected.
The target in the next assay is T3, MICA004-ECD-HISAvi. Described as above.
The assay “MICA002-ECD-HISAvi” concerns the target B3. The assay is described as above.
Method: (§1) The dissociation kinetics were monitored for approximately 10 minutes. The chip surface was regenerated between binding cycles with 10 mM glycine HCl, pH 1.7. Binding kinetics were analyzed using software supplied by the manufacturer.
Another assay deals with T4, MICB005-ECD-HISAvi. Described as above.
Assay [2] deals with T1, human MICA002 on cells. As to the kind of experiment: flow cytometry, CHO-MICA002 cells.
The next assay concerns the target T6, human MICB005 on cells (human).
T6 construct: whole, on cells; also called CHO-MICB005; C1R-MICB005
In words: flow cytometry, CHO-MICB005 cells.

The target in another assay is T7, human MICA004 on cells (human).
T7 construct: whole, on cells; also called CHO-MICA004; C1R-MICA004
As to the kind of experiment: flow cytometry, CHO-MICA004 cells.

For a further assay, the target named is T5, NKG2D-His. In words: ELISA: NKG2D-His coated, MICA/B-ECD titrated, detection 1D5 + anti-hFc-HRP.

Method for MICA004-ECD-HISAvi: as §1
Method for MICA008-ECD-HISAvi: as §1
Method for MICB005-ECD-HISAvi: as §1

Consider B1, for which the half-maximal effective concentration (EC50 (read off the curve)) in the assay with human MICA002 on cells [1] was roughly 0.6 µg/mL.
On to B2, for which the dissociation constant Kd stood at 255 nM in the assay with MICA008-ECD-HISAvi, 156 nM with MICA004-ECD-HISAvi, 61.4 nM with MICA002-ECD-HISAvi and 158 nM in the assay with MICB005-ECD-HISAvi. In addition, the EC50 was determined as 1.26 µg/mL with human MICA002 on cells [2], 2.77 µg/mL with human MICB005 on cells and 7.12 µg/mL in the assay with human MICA004 on cells.
Take B3: the concentration giving a half-maximal response (EC50 (read off the curve)) in the assay with NKG2D-His was roughly 0.2 µg/mL.
